± gives the uncertainty stated by the source.
B1: PMS1 protein homolog 1, residues 572 to 637; numbered along this chain, P54277 (parent)
chain: KKPMSASALFVQDHRPQFLIENPKTSLEDATLQIEELWKTLSEEEKLKYEEKATKDLERYNSQMKR
B2: TOX high mobility group box family member 3, residues 256 to 323; numbered along this chain, O15405 (parent)
chain: QKPVSAYALFFRDTQAAIKGQNPNATFGEVSKIVASMWDSLGEEQKQVYKRKTEAAKKEYLKALAAYR

Variants of: B1
Experiment: abundance fitness (aPCA) (normalised: wild type 0, dead -1); higher = more abundant; growth selection in yeast, the domain comes from the species named
Conditions: Homo sapiens

In order of rising abundance fitness:
1. R66I  -0.697 ± 0.43
2. N61C  -0.521 ± 0.11
3. N61F  -0.515 ± 0.13
4. K65W  -0.502 ± 0.22
5. K65G  -0.497 ± 0.19
6. N61W  -0.489 ± 0.075
7. N61I  -0.464 ± 0.13
8. K65H  -0.373 ± 0.25
9. M64K  -0.349 ± 0.21
10. Q63I  -0.348 ± 0.17
11. Y60M  -0.339 ± 0.15
12. N61L  -0.333 ± 0.055
13. M64D  -0.32 ± 0.2
14. Y60I  -0.315 ± 0.15
15. K65F  -0.276 ± 0.22
16. K65T  -0.264 ± 0.18
17. Q63P  -0.262 ± 0.098
18. R66W  -0.261 ± 0.17
19. K65I  -0.25 ± 0.2
20. S62I  -0.249 ± 0.14
21. K65M  -0.237 ± 0.12
22. S62T  -0.227 ± 0.093
23. Q63H  -0.21 ± 0.16
24. K65Y  -0.207 ± 0.19
25. Q63S  -0.207 ± 0.1
26. M64C  -0.205 ± 0.15
27. K65C  -0.203 ± 0.24
28. N61G  -0.201 ± 0.066
29. N61P  -0.197 ± 0.081
30. M64E  -0.195 ± 0.2
31. Y60L  -0.186 ± 0.056
32. Y60A  -0.178 ± 0.091
33. Q63R  -0.178 ± 0.081
34. M64I  -0.172 ± 0.12
35. R59N  -0.169 ± 0.14
36. K65N  -0.163 ± 0.12
37. R66K  -0.152 ± 0.33
38. S62G  -0.151 ± 0.074
39. N61A  -0.15 ± 0.07
40. N61R  -0.15 ± 0.059
41. S62P  -0.148 ± 0.09
42. M64N  -0.144 ± 0.13
43. M64T  -0.142 ± 0.099
44. N61D  -0.136 ± 0.074
45. M64R  -0.136 ± 0.083
46. M64L  -0.133 ± 0.062
47. N61M  -0.128 ± 0.073
48. R59W  -0.126 ± 0.069
49. Y60W  -0.117 ± 0.091
50. S62D  -0.115 ± 0.15
51. R66C  -0.113 ± 0.16
52. Q63V  -0.113 ± 0.061
53. Y60P  -0.109 ± 0.11
54. Q63L  -0.109 ± 0.067
55. Q63M  -0.109 ± 0.12
56. M64P  -0.108 ± 0.096
57. S62Y  -0.104 ± 0.096
58. M64G  -0.103 ± 0.1
59. Y60E  -0.103 ± 0.13
60. S62M  -0.099 ± 0.098
61. N61Q  -0.098 ± 0.083
62. Q63C  -0.096 ± 0.11
63. M64F  -0.095 ± 0.15
64. Q63G  -0.093 ± 0.074
65. N61S  -0.092 ± 0.062
66. Y60Q  -0.092 ± 0.13
67. S62R  -0.09 ± 0.11
68. K65R  -0.086 ± 0.12
69. S62W  -0.084 ± 0.15
70. Y60V  -0.083 ± 0.087
71. S62V  -0.078 ± 0.063
72. Q63Y  -0.078 ± 0.088
73. Y60H  -0.075 ± 0.13
74. Y60K  -0.075 ± 0.11
75. Q63T  -0.072 ± 0.088
76. S62L  -0.071 ± 0.071
77. Y60R  -0.07 ± 0.055
78. R66Y  -0.069 ± 0.13
79. K65V  -0.068 ± 0.1
80. S62F  -0.067 ± 0.078
81. R66S  -0.063 ± 0.12
82. R59T  -0.063 ± 0.079
83. M64A  -0.059 ± 0.09
84. M64S  -0.049 ± 0.055
85. Y60G  -0.046 ± 0.06
86. R59M  -0.046 ± 0.075
87. Y60T  -0.039 ± 0.11
88. Q63E  -0.038 ± 0.14
89. Q63F  -0.036 ± 0.4
90. S62E  -0.035 ± 0.11
91. N61T  -0.029 ± 0.094
92. S62Q  -0.027 ± 0.085
93. R59V  -0.021 ± 0.063
94. S62A  -0.017 ± 0.072
95. R59S  -0.017 ± 0.059
96. Y60C  -0.002 ± 0.13
97. N61K  0.007 ± 0.093
98. K65P  0.009 ± 0.13
99. R66L  0.012 ± 0.088
100. K65A  0.014 ± 0.092
101. M64V  0.015 ± 0.067
102. S62N  0.017 ± 0.12
103. R66T  0.019 ± 0.12
104. K65Q  0.02 ± 0.11
105. Q63K  0.02 ± 0.11
106. S62H  0.021 ± 0.14
107. Y60N  0.022 ± 0.19
108. Y60D  0.026 ± 0.11
109. K65L  0.029 ± 0.081
110. R66N  0.031 ± 0.34
111. R66E  0.031 ± 0.17
112. M64Y  0.035 ± 0.14
113. Y60S  0.04 ± 0.07
114. R66M  0.044 ± 0.14
115. N61E  0.047 ± 0.092
116. S62K  0.049 ± 0.078
117. R66G  0.054 ± 0.11
118. Y60F  0.063 ± 0.18
119. R66A  0.067 ± 0.082
120. Q63A  0.071 ± 0.079
121. K65E  0.073 ± 0.12
122. Q63N  0.075 ± 0.16
123. Q63D  0.079 ± 0.15
124. M64H  0.08 ± 0.16
125. R66P  0.082 ± 0.1
126. K65D  0.084 ± 0.2
127. R59Q  0.087 ± 0.085
128. R66F  0.095 ± 0.17
129. R66V  0.097 ± 0.069
130. S62C  0.12 ± 0.13

Variants of: B2
Experiment: as above
Conditions: Homo sapiens

In order of rising abundance fitness:
1. R12P  -1 ± 0.23
2. T14F  -0.99 ± 0.34
3. I18E  -0.837 ± 0.19
4. W38K  -0.799 ± 0.16
5. K52W  -0.617 ± 0.1
6. Y7C  -0.585 ± 0.19
7. N22A  -0.476 ± 0.095
8. A56W  -0.463 ± 0.07
9. Q1S  -0.386 ± 0.16
10. A6C  -0.372 ± 0.17
11. S36L  -0.344 ± 0.052
12. E43I  -0.339 ± 0.18
13. K2T  -0.294 ± 0.081
14. A35C  -0.275 ± 0.088
15. R68M  -0.247 ± 0.11
16. A35M  -0.22 ± 0.09
17. D39W  -0.211 ± 0.074
18. K58I  -0.204 ± 0.13
19. D39M  -0.191 ± 0.08
20. L41I  -0.187 ± 0.15
21. V4H  -0.182 ± 0.081
22. P3T  -0.142 ± 0.062
23. F27W  -0.129 ± 0.053
24. E59A  -0.122 ± 0.061
25. T53L  -0.09 ± 0.038
26. A16H  -0.09 ± 0.17
27. R51W  -0.079 ± 0.057
28. L61E  -0.064 ± 0.16
29. R68Q  -0.044 ± 0.089
30. R51N  -0.017 ± 0.052
31. S40N  0.005 ± 0.1
32. A16R  0.021 ± 0.053
33. T14M  0.048 ± 0.084
34. L61G  0.08 ± 0.11
35. L41M  0.09 ± 0.079
36. A66H  0.124 ± 0.088
37. T14Q  0.146 ± 0.096
